Measured values as given in patent US20120225065A1 (published 2012).
Each block holds one binder with its values, some of them ahead of it.

Molecular target: Recombinant human IL-21 (human, UniProt Q9HBE4 25-162)
Test: cell-based or functional assay

Recombinant human IL-21, sequence (Q9HBE4 25-162 limits assumed): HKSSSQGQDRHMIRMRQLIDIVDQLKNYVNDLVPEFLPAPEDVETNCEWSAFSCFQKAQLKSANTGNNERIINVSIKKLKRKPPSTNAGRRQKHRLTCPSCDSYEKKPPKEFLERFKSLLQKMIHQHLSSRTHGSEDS

% IgD-low, CD138+ Plasma Cells at antagonist:ligand ratio 0.16:1: 52.1%
% IgD-low, CD138+ Plasma Cells at antagonist:ligand ratio 0.6:1: 41.4%
% IgD-low, CD138+ Plasma Cells at antagonist:ligand ratio 2.5:1: 20.2%
% IgD-low, CD138+ Plasma Cells at antagonist:ligand ratio 10:1: 15.4%
B1: Human anti-human IL-21 monoclonal antibody clone 366.328.10 (antibody, V domains shown)
VH: EVQLVESGGGLVKPGGSLRLSCAASGFIFSSYSMNWVRQAPGKGLEWVSSITSGSYYIHYADSVKGRFTISRDNAKNSLYLQMNSLRAEDTAVYYCVRERGWGYYGMDVWGQGTTVTVSS
VL: AIQLTQSPSSLSASVGDRVTITCRASQDIDSALAWYQQKPGKAPKILIHDASSLESGVPSRFSGSGSGTDFTLTISSLQPEDFATYYCQQFNSYPYTFGQGTKLEIK

% IgD-low, CD138+ Plasma Cells at antagonist:ligand ratio 0.16:1: 66.7%
% IgD-low, CD138+ Plasma Cells at antagonist:ligand ratio 0.6:1: 54.2%
% IgD-low, CD138+ Plasma Cells at antagonist:ligand ratio 2.5:1: 41.7%
% IgD-low, CD138+ Plasma Cells at antagonist:ligand ratio 10:1: 23.4%
B2: Heterodimeric IL-21 soluble receptor IL-21R/γc-Fc (Fc fusion, not shown: a dimerising Fc or GST)
chain 1: not shown
chain 2: LNTTILTPNGNEDTTADFFLTTMPTDSLSVSTLPLPEVQCFVFNVEYMNCTWNSSSEPQPTNLTLHYWYKNSDNDKVQKCSHYLFSEEITSGCQLQKKEIHLYQTFVVQLQDPREPRRQATQMLKLQNLVIPWAPENLTLHKLSESQLELNWNNRFLNHCLEHLVQYRTDWDHSWTEQSVDYRHKFSLPSVDGQKRYTFRVRSRFNPLCGSAQHWSEWSHPIHWGSNTSKENPFLFALEA

% IgD-low, CD138+ Plasma Cells at antagonist:ligand ratio 0.16:1 (actual 0.22:1): 50.3%
% IgD-low, CD138+ Plasma Cells at antagonist:ligand ratio 0.6:1 (actual 0.9:1): 44.8%
% IgD-low, CD138+ Plasma Cells at antagonist:ligand ratio 2.5:1 (actual 3.6:1): 26.4%
% IgD-low, CD138+ Plasma Cells at antagonist:ligand ratio 10:1 (actual 14.4:1): 15.4%
B3: Human anti-human IL-21 monoclonal antibody clone 366.552.11 (antibody, V domains shown)
VH: QVQLQESGPGLVKPSETLSLTCTVSGGSISSDFWGWIRQPPGKGLEWIGYISSRGSTNYNPSLKRRVTISVDTSRNQFSLKLSSVTAADTAVYYCARSAGVTDFDFWGQGTLVTVSS
VL: DIQMTQSPSSVSASVGDRVTITCRASQGISSWLAWYQHKPGKAPKLLIYVASSLQSGVPSRFSGSGSGTDFTLTISSLQPEDFATYYCQQANSFPLTFGGGTKVEIK
